Substitutions are numbered along the chain they refer to.
B1: Round 2 CTLA4BP 2x1-g8 (ligand)
chain: VIHVTKEVKEVATLSCGHNVSVEELAQTRIHWQKEKKMVLTMMSGDMNIWPEYKNRTIFDITNNLSVVILALRPSDEGTYECVVLKYEKDAFKREHLAEVTLSVKADFPTPSITDFEIPPSNIRRIICSTSGGFPEPHLSWLENGEELNAINTTVSQDPGTELYTVSSKLDFNMTTNRSFVCLIKYGHLRVNQTFNWNTPKQEHFPDNLLPSWAITLISVNGIFVICCLTYCFAPRCRERKSNERLRRESVRPV
B2: Round 2 CTLA4BP 2x1-h12 (ligand)
chain: B1 chain with H18L, V67I, T101M, R178H, V181M, V220A, R252C
B3: Round 2 CTLA4BP 2x2-f12 (ligand)
chain: VIHVTKEVKEVATLSCGHNVSVEELAQTRIHWQKEKKMVLTMMSGDMNIWPEYKNRTIFDITNNLSIVILALRPSDEGTYGCVVLEYEKDAFKREHLAEVMLSVKADFPTPSISDFEIPPSNIRRIICSTSGGFPEPHLSWLENGEELNAINTTVSQDPETELYAVSSKLDFNMTTNHSFMCLIKYGHLRANQTFNWNTPKQEHFPDNLLPSWAITLISVNGIFVICCLTYCFAPRCRERRRNERLRRESVRPV
B4: Round 2 CTLA4BP 5x9-d10 (ligand)
chain: B3 chain with H18L, H31Y, E35G, G81E, V155A, E160G, A165T, A191V, Y231H, V251A
B5: Round 2 CTLA4BP 2x4-h11 (ligand)
chain: B3 chain with H31Y, G81E, E160G, A191V, T230A, E239G
B6: Round 2 CTLA4BP 5x2-f3 (ligand)
chain: B1 chain with H31Y, S44P, V67I, K86R, T114S, P120T, V155A, G160E, V220A, Y231H
B7: Round 2 CTLA4BP-5x2-3c (ligand)
chain: B3 chain with K6R, G81E, E86K, P120T, E162G, A165T, A191V, R252C
B8: Round 2 CTLA4BP 5x5-h12 (ligand)
chain: B1 chain with E7K, V67I, T101M, T114S, N177D, K241R, S242R, E244G
B9: Round 2 CTLA4BP 5x3-e8 (ligand)
chain: VIHVTKEVKEVATLSCGHNVSVEELAQTRIYWQKEKKMVLTMMSGDMNIWPEYKNRTIFDITNNLSIVILALRPSDEGTYECVVLEYEKDAFKREHLAEVTLSVKADFPTPSISDFEIPTSNIRRIICSTSGGFPEPHLFWLENGEELNAINTTVSQDPETELYTVSSKLDFNMTANHSFVCLIKYGHLRVNQTFNWNTPKQEHFPDNLLPSWAITLISVNGIFVICCLTYCFAPGCRERRRNERLRRESVCPV
B10: Round 2 CTLA4BP 2x2-f1 (ligand)
chain: B9 chain with Y31H, P74L, E86K, V155A, A176T, H178R, G236R, C252R
B11: Round 2 CTLA4BP-5x2-4c (ligand)
chain: B3 chain with H18L, H31Y, G81E, A150G, A165T, H178R, M181V, A191V, R252H
B12: Round 2 CTLA4BP 5x2-d7 (ligand)
chain: B3 chain with V4M, H18L, G81E, E86K, E162G, A165T, A191V
B13: Round 2 CTLA4BP-5x2-2g (ligand)
chain: B1 chain with V67I, T101M, P120T, G160E, R178H, V181M, C232R
B14: Round 2 CTLA4BP 5x2-b7 (ligand)
chain: B1 chain with V67I, T176A, R178H, V220A, K241R, S242R
B15: Round 2 CTLA4BP 5x6-f6 (ligand)
chain: B9 chain with R29P, E86K, T101M, S114T, T120P, A176T, H178R, V220A, C232R, G236R
B16: Round 2 CTLA4BP 5x3-c4 (ligand)
chain: VIHVTKEVKEVATLSCGHNVSVEELAQTRIYWQKEKKMVLTMMSGDMNIWPEYKNRTIFDITNNLSIVILALRPSDEGTYECVVLKYEKDAFKREHLAEVTLSVKADFPTPSISDFEIPPSNIRRIICSTSGGFPEPRLAWMEDGEELNAINTTASQDPETELYTVSSKLDFNMTTNRSFVCLIKYGHLRVNQTFNWNTPKQEHFPDNLFPSWAITLISVNGIFVICCLTYCFAPRCRERRRNERLRRESVRPV
B17: Round 2 CTLA4BP 5x2-e12 (ligand)
chain: B1 chain with D46G, V67I, T114S, P120T, N152S, T165A, P200T, K241R, S242R
B18: Round 2 CTLA4BP 5x5-c10 (ligand)
chain: B3 chain with H31Y, G81E, M101T, S114T, S140F, N152S, A191V, P200T, R252H
B19: Round 2 CTLA4BP 5x1-d7 (ligand)
chain: B3 chain with S21P, H31Y, S114T, F116L, S140F, V155A, A191V, V220A, R252H
B20: Round 2 CTLA4BP-5X2-12F (ligand)
chain: B3 chain with G81E, E86K, M101T, S114T, R124K, A165T, A191V, L209P, V220A, R245T
B21: Round 2 CTLA4BP 5x4-h1 (ligand)
chain: VIHVTKEVKEVATLSCGHNVSVEELAQTRIHWQKEKKMVLTMMSGDMNIWPEYKNRTIFDITNNLSIVILALRPSDEGTYECVVLKYEKDAFKRKHLAEVMLSVKADFPTPSISDFEIPTSNIRRIICSTSGGFPEPHLFWLENGEELNAINTTASQDPETELYTVSSKLDFNMTTNRSFVCLIKYGHLRVNQTFNWNTPKQEHFPNNLLPSWAITLISVNGIFVICCLTYCFAPRCRERRRNETLRRESVHPV
B22: Round 2 CTLA4BP 5x3-c3 (ligand)
chain: B9 chain with V4M, H18P, E86K, F140S, E160G, A176T, V181M, Y231H, G236R
B23: Round 2 CTLA4BP 5x2-h11 (ligand)
chain: VIHVTKKVKEVATLSCGHNVSVEELAQTRIYWQKGKKMVLTMMSGDMNIWPECKNRTIFDITNNLSIVILALRPSDEGTYECAVLKYEKDAFKREHLAEVTLSVKADFPTPSISDFEIPTSNIRRIICSTSGGFPEPHLFWLENGEELNAINTTASQDPETELYAVSSKLDFNMTTNHSFMCLIKYGHLRVNQTFNWNTPKQEHFPDNLLPSWAITLISVNGIFVICCLTYCFAPRCRERKSNERLRRESVRPV
B24: Round 2 CTLA4BP 5x4-a1 (ligand)
chain: B1 chain with H31Y, Y53H, V67I, P120T, K241R, S242R
B25: Round 2 CTLA4BP 5x1-f1 (ligand)
chain: B9 chain with H18L, Y53H, E86K, S114T, T120P, V155A, G236R, R245T, C252R

Target: T1, Soluble CTLA-4-Ig (extracellular domain of human CTLA-4 fused to the Fc portion of human IgG1) (human, UniProt P16410 36-161, FITC-conjugated in the FACS binding assays)
T1 construct: extracellular domain; bought from R&D Systems; also called sCTLA-4-Ig; CTLA-4-Ig Fc; not shown: Fc portion of human IgG1
T1 sequence (P16410 36-161): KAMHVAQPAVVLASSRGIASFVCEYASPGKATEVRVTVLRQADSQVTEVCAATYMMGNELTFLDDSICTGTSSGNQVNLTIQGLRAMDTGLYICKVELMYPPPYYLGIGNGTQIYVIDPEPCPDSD
Assay: competitive FACS on transfected cells, FITC-sCTLA-4-Ig with biotin-sCD28-Ig; grade 0-2 of CTLA-4/CD28 ratio vs WT hB7-1

Binder | Binding Score
B1 | 1
B2 | 1
B3 | 1
B4 | 1
B5 | 0
B6 | 0
B7 | 2
B8 | 1
B9 | 1
B10 | 1
B11 | 1
B12 | 1
B13 | 2
B14 | 1
B15 | 1
B16 | 1
B17 | 0
B18 | 1
B19 | 1
B20 | 1
B21 | 2
B22 | 1
B23 | 1
B24 | 0
B25 | 1

Source: patent US20100261660A1 (published 2010)
